Here are results for one molecule from publication PMC13343191, “APE1 binds and processes abasic sites present in i-motif DNA and cooperates with PCBP1 in maintenance of telomeric stability”.

The target of one data set is APE1 WT (UniProt P27695 1-318). Put plainly: southwestern blot; switchSENSE: MES pH 5.5 (APE1) or 6.5 (iMab); UV-crosslinking: 50 mM Tris-acetate pH 5.5, 50 mM KCl, 1 mM DTT, 0.8% glycerol, 0.4 mM EDTA, 4°C; NMR: 50 mM NaCl, 10 mM MES pH 5.5, 1 mM DTT, 25°C; SMADNE: 25 mM MES pH 5.5, 150 mM NaCl, 0.1 mg/ml BSA, 1 mM DTT, 1 mM Trolox. Particulars: protein: recombinant; tags: GST (Factor Xa cleavable, pGEX-3X) or His/GFP (pTAC-MAT); label: 5' IRDye800 (SWB, UV-crosslinking); i-motif, intramolecular.
Sequence of APE1 WT (P27695 whole entry): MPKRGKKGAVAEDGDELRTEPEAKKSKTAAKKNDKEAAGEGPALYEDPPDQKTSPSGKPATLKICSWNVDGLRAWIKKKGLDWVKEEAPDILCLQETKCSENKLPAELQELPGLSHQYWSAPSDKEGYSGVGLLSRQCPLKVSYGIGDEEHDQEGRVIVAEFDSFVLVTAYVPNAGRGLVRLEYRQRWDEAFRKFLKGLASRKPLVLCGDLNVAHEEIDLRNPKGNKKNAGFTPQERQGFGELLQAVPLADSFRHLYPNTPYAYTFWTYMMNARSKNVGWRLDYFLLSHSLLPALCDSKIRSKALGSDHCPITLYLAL

Another data set addresses APE1 NΔ33 (UniProt P27695 34-318, del1-33). Described as above. As to conditions: protein: recombinant; tags: GST (Factor Xa cleavable, pGEX-3X) or His/GFP (pTAC-MAT); label: 5' IRDye800 (SWB, UV-crosslinking); i-motif, intramolecular.

Sequence of APE1 NΔ33 (P27695 34-318, stated change not applied): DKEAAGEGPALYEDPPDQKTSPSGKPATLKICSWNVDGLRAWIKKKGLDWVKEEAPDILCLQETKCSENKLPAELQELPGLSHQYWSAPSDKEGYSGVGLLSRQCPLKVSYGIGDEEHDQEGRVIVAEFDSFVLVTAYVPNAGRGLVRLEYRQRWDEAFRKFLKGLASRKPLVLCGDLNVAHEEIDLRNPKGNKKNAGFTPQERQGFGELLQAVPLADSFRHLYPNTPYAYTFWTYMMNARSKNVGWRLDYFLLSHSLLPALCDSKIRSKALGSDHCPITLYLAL

Regarding TAACCCTAACCCTAACCCTAACCCTAA (structured_DNA) [C-NAT], the binding result with APE1 WT and with APE1 NΔ33 was “binds” each time.
